Data on 7 molecules can be found in patent US20250002593A1 (INMAGENE PTE, published 2025).

By Kd is commonly meant the free concentration of one partner at which half of the binding sites on the other are occupied at equilibrium, for simple one-to-one binding. In general, koff refers to the rate constant with which the complex falls apart. As usually defined, the kon is the second-order rate constant of association. One may read the EC50 as the midpoint of the concentration-response curve.

Numbering of substitutions follows the chain as printed. Where two headings read alike, the source gives them in different places.

The target of experiment [1] is T1, membrane hIL-36R (human, UniProt Q9HB29 20-575).
T1 sequence: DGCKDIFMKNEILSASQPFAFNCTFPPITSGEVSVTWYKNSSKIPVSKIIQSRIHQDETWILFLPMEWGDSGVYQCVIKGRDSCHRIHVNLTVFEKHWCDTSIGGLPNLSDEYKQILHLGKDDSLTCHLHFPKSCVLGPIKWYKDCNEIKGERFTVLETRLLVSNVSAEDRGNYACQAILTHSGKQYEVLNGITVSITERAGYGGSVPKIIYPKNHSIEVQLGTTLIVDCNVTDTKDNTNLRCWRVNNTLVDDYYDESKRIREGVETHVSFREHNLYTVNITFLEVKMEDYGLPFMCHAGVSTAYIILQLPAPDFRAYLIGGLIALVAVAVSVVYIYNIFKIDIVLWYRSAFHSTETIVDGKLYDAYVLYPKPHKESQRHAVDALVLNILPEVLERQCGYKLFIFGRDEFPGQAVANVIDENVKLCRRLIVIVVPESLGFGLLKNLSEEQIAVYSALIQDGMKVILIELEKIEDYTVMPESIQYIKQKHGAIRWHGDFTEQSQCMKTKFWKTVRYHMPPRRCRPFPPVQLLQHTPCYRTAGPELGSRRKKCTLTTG
As to the kind of experiment: cell-based or functional assay.

Experiment [2] has as its target T2, Recombinant hIL-36R protein (Acrobio, Cat #IL2-H52H6) (human, UniProt Q9HB29 20-335).
T2 construct: Bought soluble protein; also called recombinant human IL-36R protein
T2 sequence: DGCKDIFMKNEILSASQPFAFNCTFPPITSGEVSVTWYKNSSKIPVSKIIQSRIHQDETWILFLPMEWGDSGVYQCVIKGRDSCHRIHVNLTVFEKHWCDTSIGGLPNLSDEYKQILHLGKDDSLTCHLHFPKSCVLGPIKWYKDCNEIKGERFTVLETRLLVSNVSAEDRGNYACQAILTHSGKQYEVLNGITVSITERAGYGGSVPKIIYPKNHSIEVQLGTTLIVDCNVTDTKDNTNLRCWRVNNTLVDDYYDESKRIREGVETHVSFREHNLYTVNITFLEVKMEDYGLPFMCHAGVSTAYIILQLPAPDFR
As to the kind of experiment: BLI as in Example 2, antibody on Protein A sensor, hIL-36R analyte.

The target of experiment [3] is T2, Recombinant hIL-36R protein (Acrobio, …). As to the kind of experiment: BLI (Gator), antibody on Protein A sensor, hIL-36R analyte.
Experiment [4] shares this target. As to the kind of experiment: BLI (Gator), antibody on Protein A sensor, hIL-36R analyte; stands under the head kon(1/s), read as koff from KD = koff/kon.
Experiment [5] has the same target. As to the kind of experiment: BLI (Gator), antibody on Protein A sensor, hIL-36R analyte; stands under the head koff(1/Ms), read as kon from KD = koff/kon.
The target in experiment [6] is T1, membrane hIL-36R. As to the kind of experiment: cell-based or functional assay. The source holds these as a separate data set.
Experiment [7] deals with T1, membrane hIL-36R. As to the kind of experiment: cell-based or functional assay. This is another data set of the same source.
Experiment [8] has as its target T1, membrane hIL-36R. As to the kind of experiment: cell-based or functional assay. This is another data set of the same source.
Experiment [9] deals with T1, membrane hIL-36R. As to the kind of experiment: cell-based or functional assay. This is another data set of the same source.
The target of experiment [10] is T1, membrane hIL-36R. As to the kind of experiment: cell-based or functional assay. This is another data set of the same source.
Experiment [11] addresses T1, membrane hIL-36R. As to the kind of experiment: cell-based or functional assay. The source holds these as a separate data set.
In experiment [12] the target is T2, Recombinant hIL-36R protein (Acrobio, …). As to the kind of experiment: SPR (Biacore T200, 25 C), antibody captured by Fc, hIL-36R analyte. A general note: SPR reads the build-up and loss of mass on a sensor chip optically.
The target of experiment [13] is T3, Recombinant hIL1R1 protein (human, UniProt P14778 18-332, limits assumed).
T3 sequence (looked up): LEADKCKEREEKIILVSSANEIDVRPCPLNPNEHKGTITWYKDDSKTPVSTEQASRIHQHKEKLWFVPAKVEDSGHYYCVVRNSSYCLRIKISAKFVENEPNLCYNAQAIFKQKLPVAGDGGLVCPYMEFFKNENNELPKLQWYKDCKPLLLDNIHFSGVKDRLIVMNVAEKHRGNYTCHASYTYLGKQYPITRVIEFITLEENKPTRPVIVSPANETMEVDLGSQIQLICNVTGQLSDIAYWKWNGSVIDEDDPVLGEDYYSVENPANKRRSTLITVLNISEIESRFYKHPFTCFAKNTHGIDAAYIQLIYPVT
As to the kind of experiment: ELISA on coated recombinant hIL1R1 protein, detection with HRP anti-hIgG. A general note: In an ELISA, binding on a coated surface is turned into a signal by an enzyme label.

The next experiment deals with T4, recombinant hIL-36R-his (human, UniProt Q9HB29 20-337).
T4 construct: Residues 1-337 (extracellular domain) are stated for the IL-36R-his used as immunogen; The range includes the signal peptide; no cleavage site is stated; also called recombinant hIL36R protein; recombinant human IL-36R-his protein; not shown: His tag
T4 sequence: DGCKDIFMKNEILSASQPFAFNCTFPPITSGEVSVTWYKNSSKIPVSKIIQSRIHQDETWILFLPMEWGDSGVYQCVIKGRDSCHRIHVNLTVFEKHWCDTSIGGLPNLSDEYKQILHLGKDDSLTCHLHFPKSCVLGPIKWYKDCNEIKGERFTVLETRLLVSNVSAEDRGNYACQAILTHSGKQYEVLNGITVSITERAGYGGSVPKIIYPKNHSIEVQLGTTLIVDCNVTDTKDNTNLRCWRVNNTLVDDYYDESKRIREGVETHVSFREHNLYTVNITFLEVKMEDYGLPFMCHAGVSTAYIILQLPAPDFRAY
As to the kind of experiment: ELISA on coated recombinant hIL36R protein (1 µg/ml), detection with HRP anti-hIgG; unit taken from the x axis Ab(µg/mL).

Experiment [14] concerns the target T1, membrane hIL-36R. As to the kind of experiment: flow cytometry on HEK293 cells transfected with pcDNA3.1-hIL36R, FITC anti-hIgG, MFI (median); unit taken from the x axis. (A flow cytometer gives signals particle by particle.)
Experiment [15] concerns the target T2, Recombinant hIL-36R protein (Acrobio, …). As to the kind of experiment: BLI (Gator).

B1: 5F7-hu-2 (antibody, V domains shown)
VH: QVQLQESGGGLVKPGGSLRLSCAASGFAFTDYYMNWIRQAPGKGLEWVSLIRNKAAGYTIYYADSVKGRFTISRDNAKSSLYLQMNSLRAEDTAVYYCVRDMTIYDGYYVDYALDYWGQGTLVTVSS
VL: EIVMTQSPATLSVSPGERATLSCRASQNINIWLSWYQQKPGQAPRLFIYKASNLHTGVPARFSGSGSGTEFTLTISSLQSEDFAVYYCLQSQSYPLTFGQGTKLEIK
notes: Humanized 5F7; also called humanized 5F7
Take B1: the “IC50, IL-36R reporter assay: inhibition of ligand induced luminescence in Jurkat-IL36R-IL1Racp-NFkB-luc cells” value (“IC50, IL-36R reporter assay: inhibition” for short) with membrane hIL-36R [1] is 0.086 µg/mL. In experiment [2], the equilibrium dissociation constant (Kd) worked out at 6.86 nM, the koff was determined as 0.000233 s⁻¹ and the on-rate (kon) came out at 34000 M⁻¹ s⁻¹.

B2: 1J3 (antibody, V domains shown)
VH: QVQLEQSGGDLVKPGGSLKLSCAASGFTFSSYGMSWVRQTPDKRLEWVATISSYGSYTSYPDTVKGRFTISRDNAKNTLYLQMSSLKSEDTAMYYCARPDYYVSTGFDYWGQGTTLTVSS
VL: DIVITQSTATLSVTPGDRVSLSCRASQSISDYLHWYQQKSHESPRLLIKYASQSISGIPSRFSGSGSGSDFTLSINSVEPEDVGVYYCQNGHSFPFTFGSGTKLEIK
notes: Mouse variable regions, recombinantly expressed
As to B2, in experiment [3], the Kd was found to be 0.597 nM. In addition, the off-rate constant (koff) in [4] was 4.37e-05 s⁻¹. The kon in experiment [5] is 73200 M⁻¹ s⁻¹.

B3: ANB019 (antibody, V domains shown)
VH: QVQLVQSGAEVKKPGASVKVSCKASGYTFTNYWMNWVRQAPRQGLEWMGMFHPTGDVTRLNQKFKDRVTMTRDTSTSTVYMELSSLRSEDTAVYYCARTTSMIIGGFAYWGQGTLVTVSS
VL: DIVMTQTPLSLSVTPGQPASISCRSSKSLLHRNAITYFYWYLHKPGQPPQLLIYQMSNLASGVPDRFSGSGSGTDFTLKISRVEAEDVGVYYCAQNLELPLTFGGGTKVEIK
notes: also called benchmark antibody
B3: the “IC50, IL-36R reporter assay: inhibition” value in the experiment with membrane hIL-36R [6] was found to be 0.0324 µg/mL. Besides, in the experiment with membrane hIL-36R [7], the “IC50, inhibition of IL-36α induced IL-8 release in A431 cells (IL-8 ELISA, OD450) [panel IL-36α]” value was determined as 1.58 µg/mL; the “IC50, inhibition of IL-36β induced IL-8 release in A431 cells (IL-8 ELISA, OD450) [panel IL-36β]” value amounted to 0.496 µg/mL; the “IC50, inhibition of IL-36γ induced IL-8 release in A431 cells (IL-8 ELISA, OD450) [panel IL-36γ]” value is 0.0474 µg/mL. Also, the “IC50, inhibition of IL-36α induced IL-8 release in primary human dermal fibroblast (HDF) cells (IL-8 ELISA, OD450)” value with membrane hIL-36R [8] amounted to 0.106 µg/mL. Also, in the experiment with membrane hIL-36R [9], the “IC50, inhibition of IL-36α induced IL-6 release in primary human epithelial keratinocytes (HEK cells) [panel IL-6]” value came to 1.35 µg/mL; the “IC50, inhibition of IL-36α induced IL-8 release in primary human epithelial keratinocytes (HEK cells) [panel IL-8]” value worked out at 1.15 µg/mL; the “IC50, inhibition of IL-36α induced TNF-α release in primary human epithelial keratinocytes (HEK cells) [panel TNF-α]” value was 0.266 µg/mL. For the same molecule, in the experiment with membrane hIL-36R [10], the “IC50, inhibition of IL-36β induced IL-6 release in primary human epithelial keratinocytes (HEK cells) [panel IL-6]” value was 0.094 µg/mL; the “IC50, inhibition of IL-36β induced IL-8 release in primary human epithelial keratinocytes (HEK cells) [panel IL-8]” value amounted to 0.35 µg/mL; the “IC50, inhibition of IL-36β induced TNF-α release in primary human epithelial keratinocytes (HEK cells) [panel TNF-α]” value worked out at 0.0577 µg/mL. Also, in the experiment with membrane hIL-36R [11], the “IC50, inhibition of IL-36γ induced IL-6 release in primary human epithelial keratinocytes (HEK cells) [panel IL-6]” value is 0.159 µg/mL; the “IC50, inhibition of IL-36γ induced IL-8 release in primary human epithelial keratinocytes (HEK cells) [panel IL-8]” value was 0.187 µg/mL; the “IC50, inhibition of IL-36γ induced TNF-α release in primary human epithelial keratinocytes (HEK cells) [panel TNF-α]” value turned out to be 0.0726 µg/mL. In addition, in [12], the Kd came out at 13.2 nM, the off-rate (koff) turned out to be 0.000444 s⁻¹ and the kon amounted to 33500 M⁻¹ s⁻¹. In addition, in [13], the binding result is given as “no binding (tested: 1 µg/mL)”. For the same molecule, the concentration giving a half-maximal response (EC50) with recombinant hIL-36R-his is 0.0228 µg/mL. Besides, the midpoint of the response with membrane hIL-36R [14], the EC50, lay at 0.119 µg/mL.

B4: 5F7-2a6 (antibody, human IgG4 S228P, kappa, V domains shown)
VH: EVQLVESGGGLVKPGGSLRLSCAASGFDFTDYYMNWVRQAPGKGLEWVALIRNKAAGYTIYYSAPVKGRFTISRDDSKSTLYLQMNSLKTEDTAVYYCVRDMTIYDGYYVDYALDYWGQGTLVTVSS
VL: DIVMTQSPSSVSASVGDRVTITCRASRNINIWLSWYQQKPGKAPKLFIYKASNLHTGVPSRFSGSGSGTDFTLTISSLQPEDFATYYCLQSQSYPLTFGQGTKLEIKR
B4: in experiment [15], the equilibrium dissociation constant (Kd) was below 0.1 nM and the on-rate constant (kon) is 39800 M⁻¹ s⁻¹. Besides, the “IC50, IL-36R reporter assay: inhibition” value in the experiment with membrane hIL-36R [6] amounted to 0.0228 µg/mL.

B5: 5F7-hu-5 (antibody, V domains shown)
VH: B4 VH with D28A
VL: DIVMTQSPSSVSASVGDRVTITCRASQNINIWLSWYQQKPGKAPKLFIYKASNLHTGVPSRFSGSGSGTDFTLTISSLQPEDFATYYCLQSQSYPLTFGQGTKLEIK
notes: as for B1
As for B5, in the experiment with membrane hIL-36R [1], the “IC50, IL-36R reporter assay: inhibition” value came to 0.0781 µg/mL. Moreover, in experiment [2], the equilibrium dissociation constant (Kd) stood at 6.28 nM, the koff was determined as 0.000294 s⁻¹ and the kon was determined as 46700 M⁻¹ s⁻¹.

B6: 5F7-2a1 (antibody, human IgG4 S228P, kappa, V domains shown)
VH: B4 VH with N35H
VL: B4 VL
In the case of B6, in [15], the Kd is below 0.1 nM and the on-rate constant (kon) is 32500 M⁻¹ s⁻¹. For the same molecule, the “IC50, IL-36R reporter assay: inhibition” value with membrane hIL-36R [6] stood at 0.0195 µg/mL.

B7: 9C12 (antibody, V domains shown)
VH: EVQLQQSGPELVKPGASVKMSCKASGYTFTDYHMNWVKRSPGKSLEWIGRINPDYGDARYDQKFKGKATLTVDKSLSTAYMQLNRLTYEDSAVYYCARDGYYVFDYWGQGSTLTVSS
VL: DIVMTQAAFSNPVSLGTSASISCRSSKSLLHSDGITYLSWYLQRPGQSPQLLIYRMSNLVSGVPDRFSGSGSGTDFTLRISRVEAEDVGVYYCAQTLEFPLTFGAGTKLELK
notes: as for B2
With B7, in [3], the Kd is 10 nM. In [4], the dissociation rate constant (koff) amounted to 0.000795 s⁻¹. In experiment [5], the kon came out at 79400 M⁻¹ s⁻¹.
